In US20240016901A1, “COMPOSITIONS AND METHODS FOR PREVENTING AND TREATING SARS-COV-2 INFECTION” (priority 2020, published 2024):

B1: Hololactoferrin: Hololactoferrin (Sigma Aldrich, L4765) (protein, UniProt P02788 20-710, looked up)
Lactotransferrin: GRRRSVQWCAVSQPEATKCFQWQRNMRKVRGPPVSCIKRDSPIQCIQAIAENRADAVTLDGGFIYEAGLAPYKLRPVAAEVYGTERQPRTHYYAVAVVKKGGSFQLNELQGLKSCHTGLRRTAGWNVPIGTLRPFLNWTGPPEPIEAAVARFFSASCVPGADKGQFPNLCRLCAGTGENKCAFSSQEPYFSYSGAFKCLRDGAGDVAFIRESTVFEDLSDEAERDEYELLCPDNTRKPVDKFKDCHLARVPSHAVVARSVNGKEDAIWNLLRQAQEKFGKDKSPKFQLFGSPSGQKDLLFKDSAIGFSRVPPRIDSGLYLGSGYFTAIQNLRKSEEEVAARRARVVWCAVGEQELRKCNQWSGLSEGSVTCSSASTTEDCIALVLKGEADAMSLDGGYVYTAGKCGLVPVLAENYKSQQSSDPDPNCVDRPVEGYLAVAVVRRSDTSLTWNSVKGKKSCHTAVDRTAGWNIPMGLLFNQTGSCKFDEYFSQSCAPGSDPRSNLCALCIGDEQGENKCVPNSNERYYGYTGAFRCLAENAGDVAFVKDVTVLQNTDGNNNEAWAKDLKLADFALLCLDGKRKPVTEARSCHLAMAPNHAVVSRMDKVERLKQVLLHQQAKFGRNGSDCPDKFCLFQSETKNLLFNDNTECLARLHGKTTYEKYLGPQYVAGITNLKKCSTSPLLEACEFLRK
modifications: iron-saturated holo form
B2: Lacto ferrin: a protein found in milk and other secretory fluids; diet supplement (protein, UniProt P24627 20-708, looked up)
Lactotransferrin: APRKNVRWCTISQPEWFKCRRWQWRMKKLGAPSITCVRRAFALECIRAIAEKKADAVTLDGGMVFEAGRDPYKLRPVAAEIYGTKESPQTHYYAVAVVKKGSNFQLDQLQGRKSCHTGLGRSAGWIIPMGILRPYLSWTESLEPLQGAVAKFFSASCVPCIDRQAYPNLCQLCKGEGENQCACSSREPYFGYSGAFKCLQDGAGDVAFVKETTVFENLPEKADRDQYELLCLNNSRAPVDAFKECHLAQVPSHAVVARSVDGKEDLIWKLLSKAQEKFGKNKSRSFQLFGSPPGQRDLLFKDSALGFLRIPSKVDSALYLGSRYLTTLKNLRETAEEVKARYTRVVWCAVGPEEQKKCQQWSQQSGQNVTCATASTTDDCIVLVLKGEADALNLDGGYIYTAGKCGLVPVLAENRKSSKHSSLDCVLRPTEGYLAVAVVKKANEGLTWNSLKDKKSCHTAVDRTAGWNIPMGLIVNQTGSCAFDEFFSQSCAPGADPKSRLCALCAGDDQGLDKCVPNSKEKYYGYTGAFRCLAEDVGDVAFVKNDTVWENTNGESTADWAKNLNREDFRLLCLDGTRKPVTEAQSCHLAVAPNHAVVSRSDRAAHVKQVLLHQQALFGKNGKNCPDKFCLFKSETKNLLFNDNTECLAKLGGRPTYEEYLGTEYVTAIANLKKCSTSPLLEACAFLTR
B3: apolactoferrin: apolactoferrin (Jarrow Formulas, 121011); component of dietary supplements (protein, UniProt P24627 20-708, looked up)
Lactotransferrin: APRKNVRWCTISQPEWFKCRRWQWRMKKLGAPSITCVRRAFALECIRAIAEKKADAVTLDGGMVFEAGRDPYKLRPVAAEIYGTKESPQTHYYAVAVVKKGSNFQLDQLQGRKSCHTGLGRSAGWIIPMGILRPYLSWTESLEPLQGAVAKFFSASCVPCIDRQAYPNLCQLCKGEGENQCACSSREPYFGYSGAFKCLQDGAGDVAFVKETTVFENLPEKADRDQYELLCLNNSRAPVDAFKECHLAQVPSHAVVARSVDGKEDLIWKLLSKAQEKFGKNKSRSFQLFGSPPGQRDLLFKDSALGFLRIPSKVDSALYLGSRYLTTLKNLRETAEEVKARYTRVVWCAVGPEEQKKCQQWSQQSGQNVTCATASTTDDCIVLVLKGEADALNLDGGYIYTAGKCGLVPVLAENRKSSKHSSLDCVLRPTEGYLAVAVVKKANEGLTWNSLKDKKSCHTAVDRTAGWNIPMGLIVNQTGSCAFDEFFSQSCAPGADPKSRLCALCAGDDQGLDKCVPNSKEKYYGYTGAFRCLAEDVGDVAFVKNDTVWENTNGESTADWAKNLNREDFRLLCLDGTRKPVTEAQSCHLAVAPNHAVVSRSDRAAHVKQVLLHQQALFGKNGKNCPDKFCLFKSETKNLLFNDNTECLAKLGGRPTYEEYLGTEYVTAIANLKKCSTSPLLEACAFLTR
modifications: iron-free apo form
notes: apolactoferrin (Jarrow Formulas, 121011); component of dietary supplements

Experiments:
SARS-CoV-2 [1] = test: microbe, parasite or virus in culture; format: cell-based; details: Huh-7 cells; for anti-SARS-CoV-2 activity, percentage of infected Huh-7 cells: protein at 2.3 μM, FIG. 6E
[2] = test system: IFNβ, ISG15, MX1, Viperin and IFITM3; test: qPCR of IFNβ and interferon-stimulated gene mRNA in Huh-7 cells; format: cell-based, human; details: lactoferrin-treated Huh-7 cells, FIG. 6D
SARS-CoV-2 [3] = format: cell-based, SARS-CoV-2 WA1; details: iAECs, pretreatment 1.15 μM, MOI 10
SARS-CoV-2 [4] = format: cell-based, SARS-CoV-2 WA1; details: Huh-7 cells, MOI 0.2, 48 hrs p.i., FIG. 6C

Molecule | anti-SARS-CoV-2 activity, percentage of infected Huh-7 cells (SARS-CoV-2 [1]) | mRNA levels of IFNβ and interferon-stimulated genes ISG15, MX1, Viperin and IFITM3 [2] | antiviral activity against SARS-CoV-2 (in words) (SARS-CoV-2 [1]) | antiviral activity when added after infection (SARS-CoV-2 [1]; 2.3 μM added 1 or 24 hrs p.i., MOI 1, 5 and 10, FIG. 6B) | EC50 (SARS-CoV-2 [1]; MOI 0.2, 10-point two-fold dilution dose response in triplicate) [nM] | potentiation of efficacy in combination with remdesivir (SARS-CoV-2 [1]; MOI 0.2, FIG. 6G, FIG. 7A) | potentiation of efficacy in combination with hydroxychloroquine (SARS-CoV-2 [1]; MOI 10, FIG. 6H, FIG. 7B) | IC50 (SARS-CoV-2 [1]; read-out: IC50 against SARS-CoV-2 infection) [nM] | reduction in the proportion of SARS-CoV-2 infected cells (SARS-CoV-2 [3]) | viral replication (viral genome copies) (SARS-CoV-2 [4])
B1 | robust antiviral effect |  |  |  |  |  |  |  |  | 
B2 |  | elevated | dose-dependent (3 nM-2.3 μM) and MOI-dependent (0.2-10) antiviral activity | retains antiviral activity | 308 | potentiates the efficacy | potentiates the efficacy | 308 | two-fold reduction | dose-dependent reduction of viral replication
B3 | robust antiviral effect |  |  |  |  |  |  |  |  | 
